Test results: publication PMC9063426, “MAP kinases differentially bind and phosphorylate NOS3 via two unique NOS3 sites” (FEBS Open Bio, 2022)

Columns and labels:
[1] = biological target: NtMAP peptide (NOS3 N-terminal MAP kinase site) (human); experiment: BLI; N-terminally biotinylated NOS3 peptides on streptavidin sensors, inactive MAP kinases as analytes at 31-1000 nM; 25 °C; PBS with 10% glycerol, 0.005% tween, 1 mM DTT; global one-state association-then-dissociation fit
[2] = biological target: AI peptide (NOS3 autoinhibitory loop site) (human); experiment: as above
[3] = biological target: NOS3 NtMAP peptide (N-terminal MAP kinase site), biotinylated (human); experiment: BLI; N-terminally biotinylated NOS3 peptides on streptavidin sensors, inactive MAP kinases as analytes (31 to 1000 nM); 25 °C; PBS with 10% glycerol, 0.005% tween, 1 mM DTT; global one-state association-then-dissociation fit
[4] = biological target: NOS3 AI peptide (autoinhibitory loop site), biotinylated (human); experiment: as above
ERK2 = ERK2 (UniProt P63086); experiment: BLI, biotinylated peptide on streptavidin sensor

Row | Kd [1] [nM] | koff [1] [s⁻¹] | kon [1] [M⁻¹ s⁻¹] | Kd [2] [nM] | koff [2] [s⁻¹] | kon [2] [M⁻¹ s⁻¹] | koff [3] [s⁻¹] | kon [3] [M⁻¹ s⁻¹] | koff [4] [s⁻¹] | kon [4] [M⁻¹ s⁻¹] | KD (ERK2; reference: unphosphorylated NtMAP peptide, sites S114) | KD (ERK2; reference: unphosphorylated AI peptide, sites S633) | Substance
1 | 940 | 0.062 | 6600 | 170 | 0.002 | 12000 | 0.00623 | 6600 | 0.00207 | 12100 |  |  | ERK2, inactive (unphosphorylated), His-purified (from UniProt P63086 1-358) (enzyme)
2 |  |  |  |  |  |  |  |  |  |  | lost; reference 940 |  | NOS3 (eNOS) NtMAP site (from UniProt P29474) NtMAP pS114 peptide
3 | 38 | 0.00054 | 14000 | 3 |  | 84000 | 0.000543 | 14100 | 0.00025 | 84600 |  |  | GST-JNK1α1, inactive (unphosphorylated), made in house (from UniProt P45983-2 1-384) (enzyme)
4 |  |  |  |  |  |  |  |  |  |  |  | lost; reference 170 | NOS3 (eNOS) autoinhibitory (AI) loop site (from UniProt P29474) AI pS633 peptide
